Molecular target: T1, human CD38 on cells (human CD38-overexpressing Jurkat cells); CD38-expressing MM.1R, THP-1 and MM.1S target … (human, UniProt P28907 1-300)
T1 construct: also called CD38+ cells
Test: summing-up sentence of the examples (cell binding, SPR, CAR format)

Binder	binding result
anti-CD38 scFv of SEQ ID NO:109 (scFv, One of the 12 selected scFvs; Also tested inside a CAR) scFv: EGQLLESGGGLVQPGGSLRLSCAASGFTFSSFAMSWVRQAPGKGLEWVSTISGSGGSTNYADSVKGRFTISRDNSKKTLYLQMSSLRAEDTAVFYCAKGPTSPYSYYMDVWGKGTTVTVSSGGGGSGGGGSGGGGSEIVMTQSPATLSLSPGERATLSCRASQSVSSSFLSWFQQKPGQAPRLLIYGASTRATGIPARFSGSGSGTDFTLTISSLQPEDFAVYYCQQDYNLPYTFGQGTKLEIK	binds
anti-CD38 scFv of SEQ ID NO:111 (scFv, One of the 12 selected scFvs; Also tested inside a CAR) scFv: EAQLLESGGDLVQPGGSLRLSCAASGFTFSSYAMSWVRQAPGKGLEWVSTISVSGDSTYYADSVKGRFTISRDNSKNTLYLQMNSLRAEDTAVYYCAKALLYQGLRMDVWGKGTTVTVSSGGGGSGGGGSGGGGSDIQMTQSPSSLSASVGDRVTITCRASQGIATWLAWYQQKPEKAPKSLIYAASSLQSGVPSRFSGSGSGTDFTLSISSLQPEDFATYYCQQYNSYPLTFGGGTKVEIK	binds
anti-CD38 scFv of SEQ ID NO:116 (scFv, One of the 12 selected scFvs; Also tested inside a CAR) scFv: EVQLVESGGGVVRPGGSLRLSCAASGFTFDDYGMSWVRQAPGKGLEWVSGINWNGGSTDYAASVKGRFTISRDNAKNSLYLQMNSLRAEDTALYHCARVFCTNGVCYPYSYYYFMDVWGKGTTVTVSSGGGGSGGGGSGGGGSEIVMTQSPATLSVSPGERATLSCRASQSVSSNLAWYQQKPGQAPRLLTYGASTRATGIPARFSGSGSGTEFTLTISSLQSEDFAVYYCQQYNNWPYTFGQGTRLEIK	binds
anti-CD38 scFv of SEQ ID NO:117 (scFv, One of the 12 selected scFvs; Also tested inside a CAR) scFv: EVQLVESGGGVVRPGGSLRLSCAASGFTFDDYGMSWVRQAPGKGLEWVSGINWNGGSTGYADSVKGRFTISRDNAKNSLYLQMNSLRAEDTAFYHCAREGDGYKGTFYYYYYMDVWGKGTTVTVSSGGGGSGGGGSGGGGSDIQLTQSPSFLSASVGDRVTITCRASQGIFNYLAWYQQKPGKAPNLLIYAASNLQSGVPSRFSGSGSGTEFTLTISSLQPEDFATYYCQQLNSYPLTFGGGTKVEIK	binds

Continued, values first:

binding result	Binder
binds	anti-CD38 scFv of SEQ ID NO:108 (scFv, One of the 12 selected fully human scFvs; Also tested inside a CAR (CD8a hinge and transmembrane, OX40, CD3zeta; FLAG tag in Jurkat cells)) scFv: EVQLLESGGGLVQPGGSLRLSCAASGFTFSSYAMTWVRQAPGKGLEWVSAISPSGGSTFYADSVKGRFTISRDNSKNTLYLEMNSLRAEDTAVYYCAKDLDFYGSGSYSSWGKGTTVTVSSGGGGSGGGGSGGGGSEIVMTQSPATLSLSPGERATLSCRASQSVSNSYLSWYQQKPGQAPRLLIFGTSTRATGIPARFSGSGSGTDFTLTISSLQPEDFAVYHCQQDYKLPYTFGQGTKLEIK
binds	anti-CD38 scFv of SEQ ID NO:110 (scFv, One of the 12 selected scFvs; Also tested inside a CAR) scFv: QVQLVQSGAEVKKPGASVKVSCKASGYTFNRYVISWVRQAPGQGLEWMGWIRAYNGNTNYAQKFQGRVTMTTDTSTSTAYMELRSLRSDDTAVYYCARDSTTGTTEGMDVWGKGTTVTVSSGGGGSGGGGSGGGGSEIVMTQSPATLSLSPGERATLSCRASQSVSSSYLSWYQQKPGQAPRLLIYGASTRATGIPARFSGSGSGTDFTLTISSLQPEDFAVYYCQQDYNLPLTFGGGTKVEIN
binds	anti-CD38 scFv of SEQ ID NO:119 (scFv, One of the 12 selected scFvs; Also tested inside a CAR) scFv: EVQLLESGGGLVQPGGSLRLSCAASGFTFSNYDMSWVRQAPGKGLEWVSTTSASGGNTYYADSVRGRFTISRDNSKNTLYLQMNSLRAEDTAVYYCAKEGDGYNPFRDHYYYFMDVWGKGTTVTVSSGGGGSGGGGSGGGGSETVMTQSPAALSVSPGERATLSCRASQSVSSNLAWYQQKPGQAPRLLIYGASTRATGIPARFSGSGSGTEFTLTISSLQSEDFAVYYCQQYNNWPPYTFGQGTKLEIK
binds	anti-CD38 scFv of SEQ ID NO:112 (scFv, One of the 12 selected scFvs; Also tested inside a CAR) scFv: QVQLVQSGAEVKKPGASVKVSCKASGFTFTSYGFSWVRQAPGQGLEWMGWISAYSGNTKYAQKFQGRVTMTTDTSTSTAYMELRSLRSDDTAVYYCAREGGTTGTFYYYYYMDVWGKGTTVTVSSGGGGSGGGGSGGGGSEIVLTQSPDFQSVTPKEKVTITCRASQSIGRSLHWYQQKPDQSPKLLIKYASQSFSGVPSRFSGSGSGTDFTLTINSLEAEDAATYYCLQSSSLPLTFGGGTKVEIK
